Measured values reported in publication PMC11074131, “ASS1 inhibits triple-negative breast cancer by regulating PHGDH stability and de novo serine synthesis” (Cell Death & Disease, 2024).

B2: GST-ASS1 (natural protein, human, UniProt P00966 1-412, looked up)
chain: MSSKGSVVLAYSGGLDTSCILVWLKEQGYDVIAYLANIGQKEDFEEARKKALKLGAKKVFIEDVSREFVEEFIWPAIQSSALYEDRYLLGTSLARPCIARKQVEIAQREGAKYVSHGATGKGNDQVRFELSCYSLAPQIKVIAPWRMPEFYNRFKGRNDLMEYAKQHGIPIPVTPKNPWSMDENLMHISYEAGILENPKNQAPPGLYTKTQDPAKAPNTPDILEIEFKKGVPVKVTNVKDGTTHQTSLELFMYLNEVAGKHGVGRIDIVENRFIGMKSRGIYETPAGTILYHAHLDIEAFTMDREVRKIKQGLGLKFAELVYTGFWHSPECEFVRHCIAKSQERVEGKVQVSVLKGQVYILGRESPLSLYNEELVSMNVQGDYEPTDATGFININSLRLKEYHRLQSKVTAK
notes: also called recombinant GST-ASS1; source: E. coli BL21 DE3, purified

Tests used:
Details in all cases: both partners purified
[1] = target: B2; assay: pull-down; purified GST-ASS1 immobilised on MagneGST Glutathione Particles; purified His-PHGDH or its truncated forms added overnight at 4 °C; washed with PBST; western blot; GST as negative control
[2] = target: T1, His-PHGDH (UniProt O43175 1-533); assay: as above
T1 construct: also called PHGDH-F; full-length PHGDH; source: E. coli BL21 DE3, purified
T1 sequence (looked up): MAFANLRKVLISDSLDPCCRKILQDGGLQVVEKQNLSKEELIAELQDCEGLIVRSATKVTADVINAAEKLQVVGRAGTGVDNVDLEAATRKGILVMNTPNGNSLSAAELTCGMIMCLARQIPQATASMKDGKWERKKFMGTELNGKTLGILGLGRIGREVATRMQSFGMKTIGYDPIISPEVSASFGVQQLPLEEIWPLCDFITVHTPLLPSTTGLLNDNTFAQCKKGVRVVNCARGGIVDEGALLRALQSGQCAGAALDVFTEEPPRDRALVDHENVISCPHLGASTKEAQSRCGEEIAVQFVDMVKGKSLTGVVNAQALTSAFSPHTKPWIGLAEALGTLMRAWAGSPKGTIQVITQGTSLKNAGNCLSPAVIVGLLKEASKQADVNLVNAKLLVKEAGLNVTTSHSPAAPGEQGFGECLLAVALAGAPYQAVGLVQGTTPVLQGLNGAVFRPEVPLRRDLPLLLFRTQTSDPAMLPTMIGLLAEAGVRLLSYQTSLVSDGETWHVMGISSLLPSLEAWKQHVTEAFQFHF

[3] = target: T2, GST-PHGDH (UniProt O43175 1-533); assay: pull-down; purified GST-PHGDH immobilised on MagneGST Glutathione Particles; purified His-ASS1 added overnight at 4 °C; washed with PBST; western blot; GST as negative control
T2 construct: also called recombinant GST-PHGDH; source: E. coli BL21 DE3, purified
T2 sequence (looked up): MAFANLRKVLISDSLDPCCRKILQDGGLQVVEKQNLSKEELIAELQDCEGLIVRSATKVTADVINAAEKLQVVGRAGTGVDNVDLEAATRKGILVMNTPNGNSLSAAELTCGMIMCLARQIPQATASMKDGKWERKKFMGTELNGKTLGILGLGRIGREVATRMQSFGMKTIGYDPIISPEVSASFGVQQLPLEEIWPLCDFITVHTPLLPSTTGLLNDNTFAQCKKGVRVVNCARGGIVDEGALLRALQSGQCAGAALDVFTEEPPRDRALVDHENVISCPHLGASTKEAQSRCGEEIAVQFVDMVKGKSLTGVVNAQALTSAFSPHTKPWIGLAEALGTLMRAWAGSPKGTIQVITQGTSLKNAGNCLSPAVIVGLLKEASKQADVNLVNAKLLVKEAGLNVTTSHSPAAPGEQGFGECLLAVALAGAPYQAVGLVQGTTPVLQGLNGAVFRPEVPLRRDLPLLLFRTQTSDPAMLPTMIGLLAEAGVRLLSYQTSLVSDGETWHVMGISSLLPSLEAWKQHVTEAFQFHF

B1: PHGDH N-314 (catalytic domain) (domain or fragment, UniProt O43175 1-314, looked up)
chain: MAFANLRKVLISDSLDPCCRKILQDGGLQVVEKQNLSKEELIAELQDCEGLIVRSATKVTADVINAAEKLQVVGRAGTGVDNVDLEAATRKGILVMNTPNGNSLSAAELTCGMIMCLARQIPQATASMKDGKWERKKFMGTELNGKTLGILGLGRIGREVATRMQSFGMKTIGYDPIISPEVSASFGVQQLPLEEIWPLCDFITVHTPLLPSTTGLLNDNTFAQCKKGVRVVNCARGGIVDEGALLRALQSGQCAGAALDVFTEEPPRDRALVDHENVISCPHLGASTKEAQSRCGEEIAVQFVDMVKGKSLTG
notes: also called catalytic domain of PHGDH; source: E. coli BL21 DE3, purified
binding result [1]: binds

B2
binding result [2]: binds

B3: His-ASS1 (natural protein, human, UniProt P00966 1-412, looked up)
chain: MSSKGSVVLAYSGGLDTSCILVWLKEQGYDVIAYLANIGQKEDFEEARKKALKLGAKKVFIEDVSREFVEEFIWPAIQSSALYEDRYLLGTSLARPCIARKQVEIAQREGAKYVSHGATGKGNDQVRFELSCYSLAPQIKVIAPWRMPEFYNRFKGRNDLMEYAKQHGIPIPVTPKNPWSMDENLMHISYEAGILENPKNQAPPGLYTKTQDPAKAPNTPDILEIEFKKGVPVKVTNVKDGTTHQTSLELFMYLNEVAGKHGVGRIDIVENRFIGMKSRGIYETPAGTILYHAHLDIEAFTMDREVRKIKQGLGLKFAELVYTGFWHSPECEFVRHCIAKSQERVEGKVQVSVLKGQVYILGRESPLSLYNEELVSMNVQGDYEPTDATGFININSLRLKEYHRLQSKVTAK
notes: also called recombinant His-ASS1; source: E. coli BL21 DE3, purified
binding result [3]: binds
